From paper doi:10.64898/2025.12.12.693935

Target: CD82-StrepII3 (human) (UniProt P27701)
Assay: SEC

B1: CADM1-His6 (natural protein)
chain: QNLFTKDVTVIEGEVATISCQVNKSDDSVIQLLNPNRQTIYFRDFRPLKDSRFQLLNFSSSELKVSLTNVSISDEGRYFCQLYTDPPQESYTTITVLVPPRNLMIDIQKDTAVEGEEIEVNCTAMASKPATTIRWFKGNTELKGKSEVEEWSDMYTVTSQLMLKVHKEDDGVPVICQVEHPAVTGNLQTQRYLEVQYKPQVHIQMTYPLQGLTREGDALELTCEAIGKPQPVMVTWVRVDDEMPQHAVLSGPNLFINNLNKTDNGTYRCEASNIVGKAHSDYMLYVYDPPTTIPPPTTTTTTTTTTTTTILTIITDSRAGEEGSIRAVDHAVIGGVVAVVVFAMLCLLIILGRYFARHKGTYFTHEAKGADDAADADTAIINAEGGQNNSEEKKEYFI
With B1 the stoichiometry N was 1.
